Common to all, as to details: both partners purified
Test [1] deals with T1, GFP-NBR1 (recombinant, purified) (UniProt Q14596 1-966).
T1 construct: NBR1; source: HEK293 (pCAGGSsH-C vector, VBCF ProTech facility), purified as described previously; not shown: GFP, N-terminal, kept
T1 sequence (looked up): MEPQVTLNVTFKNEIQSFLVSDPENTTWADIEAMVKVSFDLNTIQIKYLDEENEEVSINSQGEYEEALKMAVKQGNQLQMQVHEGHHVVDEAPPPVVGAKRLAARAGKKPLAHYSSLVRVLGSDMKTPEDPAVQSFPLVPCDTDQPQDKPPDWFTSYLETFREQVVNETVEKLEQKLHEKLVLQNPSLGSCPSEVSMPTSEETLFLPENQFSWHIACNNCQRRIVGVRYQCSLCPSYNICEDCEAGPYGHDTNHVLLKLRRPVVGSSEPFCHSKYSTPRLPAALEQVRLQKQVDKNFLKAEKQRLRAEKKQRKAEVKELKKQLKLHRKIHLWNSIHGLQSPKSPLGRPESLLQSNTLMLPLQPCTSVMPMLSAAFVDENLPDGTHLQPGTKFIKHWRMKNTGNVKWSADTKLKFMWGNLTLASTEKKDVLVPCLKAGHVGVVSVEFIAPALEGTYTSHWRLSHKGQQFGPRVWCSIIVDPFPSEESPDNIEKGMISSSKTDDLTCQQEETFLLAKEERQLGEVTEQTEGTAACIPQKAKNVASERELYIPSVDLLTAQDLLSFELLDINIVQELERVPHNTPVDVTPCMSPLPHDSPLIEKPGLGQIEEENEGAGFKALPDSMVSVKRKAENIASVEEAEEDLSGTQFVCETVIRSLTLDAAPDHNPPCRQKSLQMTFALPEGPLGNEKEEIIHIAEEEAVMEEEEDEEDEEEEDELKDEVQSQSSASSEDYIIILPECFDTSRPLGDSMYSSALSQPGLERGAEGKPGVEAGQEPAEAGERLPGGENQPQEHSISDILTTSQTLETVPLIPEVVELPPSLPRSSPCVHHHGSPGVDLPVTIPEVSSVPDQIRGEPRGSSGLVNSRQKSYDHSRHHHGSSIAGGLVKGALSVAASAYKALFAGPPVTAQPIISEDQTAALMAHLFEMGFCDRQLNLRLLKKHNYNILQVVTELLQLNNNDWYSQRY
In words: microscopy-based protein-protein interaction assay (beads); 2.5 µM GST-TAX1BP1 (FL, domain, truncations, point mutants) as bait on GST beads; 1 µM GFP-NBR1 as prey; 25 mM HEPES pH 7.5, 150 mM NaCl, 1 mM DTT; 15-30 min at RT; confocal imaging.

Test [2] has as its target T2, NBR1 (untagged, recombinant) (UniProt Q14596 1-966).
T2 construct: NBR1; source: HEK293 (pCAGGSsH-C vector, VBCF ProTech facility), purified as described previously
T2 sequence (looked up): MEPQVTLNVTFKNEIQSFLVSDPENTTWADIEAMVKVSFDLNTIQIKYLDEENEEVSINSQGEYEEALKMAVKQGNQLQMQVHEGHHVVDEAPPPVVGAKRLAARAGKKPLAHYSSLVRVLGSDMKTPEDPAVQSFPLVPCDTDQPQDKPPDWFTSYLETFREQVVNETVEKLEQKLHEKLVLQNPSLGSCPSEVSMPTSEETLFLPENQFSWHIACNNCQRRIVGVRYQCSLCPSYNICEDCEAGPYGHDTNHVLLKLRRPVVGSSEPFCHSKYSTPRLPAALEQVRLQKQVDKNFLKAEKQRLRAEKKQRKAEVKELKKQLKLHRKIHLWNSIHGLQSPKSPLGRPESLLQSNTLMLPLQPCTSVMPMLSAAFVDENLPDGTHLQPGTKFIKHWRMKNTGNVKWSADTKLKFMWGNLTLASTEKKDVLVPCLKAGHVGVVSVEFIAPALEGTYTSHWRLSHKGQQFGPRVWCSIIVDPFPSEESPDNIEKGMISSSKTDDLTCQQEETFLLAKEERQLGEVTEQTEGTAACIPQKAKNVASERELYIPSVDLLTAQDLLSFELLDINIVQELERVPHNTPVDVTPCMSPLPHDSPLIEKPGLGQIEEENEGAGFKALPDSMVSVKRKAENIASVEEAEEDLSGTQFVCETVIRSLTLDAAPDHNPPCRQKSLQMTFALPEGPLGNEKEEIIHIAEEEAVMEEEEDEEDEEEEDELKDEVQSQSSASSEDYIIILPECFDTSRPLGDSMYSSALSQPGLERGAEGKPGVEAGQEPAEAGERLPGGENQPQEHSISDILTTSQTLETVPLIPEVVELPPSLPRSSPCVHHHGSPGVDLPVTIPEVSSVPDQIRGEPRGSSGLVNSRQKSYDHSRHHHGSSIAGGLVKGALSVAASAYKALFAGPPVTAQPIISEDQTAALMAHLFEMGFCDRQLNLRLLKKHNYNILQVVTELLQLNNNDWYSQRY
In words: in vitro condensation assay (recruitment to p62 condensates, microscopy); 2 µM mCherry-p62 S403E, 1 µM NBR1 (or without NBR1), 2 µM GFP-TAX1BP1 (FL, ΔN or ΔZnF; N domain) in 25 mM HEPES pH 7.5, 150 mM NaCl, 1 mM DTT; condensation triggered with 5 µM GST-4xUB; spinning disk microscopy.

Test [3] concerns the target T3, 10x-His-mCherry-TAX1BP1 (full length, FL) (UniProt Q86VP1 1-789).
T3 construct: TAX1BP1, full length (FL); also called mCh-TAX1BP1; mCherry-TAX1BP1 FL; source: Sf9 insect cells (pLIB vector, baculovirus), purified as described previously; not shown: mCherry, N-terminal, kept
In words: microscopy-based protein-protein interaction assay (beads); mCherry-TAX1BP1 FL or ΔN on RFP-trap beads; GFP tagged NBR1 fragment CC2-LIR1 as prey.

T3 sequence (Q86VP1 whole entry): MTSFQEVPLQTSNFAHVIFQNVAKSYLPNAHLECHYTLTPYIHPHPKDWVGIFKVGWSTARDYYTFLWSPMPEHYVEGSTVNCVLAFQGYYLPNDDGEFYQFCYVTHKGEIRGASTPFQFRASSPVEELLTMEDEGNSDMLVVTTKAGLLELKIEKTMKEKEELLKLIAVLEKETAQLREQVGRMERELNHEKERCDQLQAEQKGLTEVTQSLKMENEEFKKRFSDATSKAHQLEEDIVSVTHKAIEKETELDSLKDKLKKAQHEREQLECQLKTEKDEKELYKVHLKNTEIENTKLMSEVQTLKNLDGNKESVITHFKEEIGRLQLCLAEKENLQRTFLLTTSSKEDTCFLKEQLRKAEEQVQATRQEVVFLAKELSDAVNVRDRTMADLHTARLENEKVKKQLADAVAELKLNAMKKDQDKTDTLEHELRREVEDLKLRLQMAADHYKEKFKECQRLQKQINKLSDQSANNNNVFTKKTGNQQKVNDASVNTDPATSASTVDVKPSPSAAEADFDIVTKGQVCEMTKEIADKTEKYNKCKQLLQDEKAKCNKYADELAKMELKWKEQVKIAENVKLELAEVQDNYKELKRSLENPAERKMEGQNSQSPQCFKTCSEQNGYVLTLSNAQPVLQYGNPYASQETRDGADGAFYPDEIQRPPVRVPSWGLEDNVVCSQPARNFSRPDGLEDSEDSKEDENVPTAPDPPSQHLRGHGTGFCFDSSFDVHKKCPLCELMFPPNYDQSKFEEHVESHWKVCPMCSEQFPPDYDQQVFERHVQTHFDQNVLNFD

B1: GST-N domain (aa420-506 of TAX1BP1) (domain or fragment, UniProt Q86VP1 420-506, looked up)
chain: DQDKTDTLEHELRREVEDLKLRLQMAADHYKEKFKECQRLQKQINKLSDQSANNNNVFTKKTGNQQKVNDASVNTDPATSASTVDVK
As for B1, in test [1], the binding result is listed as “binds”.

B2: GFP-N-domain (aa420-506 of TAX1BP1) (domain or fragment, UniProt Q86VP1 420-506, looked up)
chain: DQDKTDTLEHELRREVEDLKLRLQMAADHYKEKFKECQRLQKQINKLSDQSANNNNVFTKKTGNQQKVNDASVNTDPATSASTVDVK
notes: TAX1BP1 N-domain, aa420-506; Cloned into pGEX-4T1; the methods name the purified protein GFP-N domain and give elution either by TEV cleavage or by glutathione; also called N-domain alone; isolated N-domain; source: E. coli Rosetta (pGEX-4T1), purified (GST beads, SEC); not shown: GFP, N-terminal, kept
For B2, the binding result in test [2] is reported as “binds”.

B3: GFP-CC2-LIR1 (NBR1 aa685 - aa757) (domain or fragment, UniProt Q14596 685-757, looked up)
chain: LGNEKEEIIHIAEEEAVMEEEEDEEDEEEEDELKDEVQSQSSASSEDYIIILPECFDTSRPLGDSMYSSALSQ
notes: NBR1 fragment CC2-LIR1, aa685-757; The methods name the purified protein GST-GFP-CC2-LIR1 and give elution either by TEV cleavage or by glutathione; also called GST-GFP-CC2-LIR1; GFP tagged NBR1 fragment (CC2-LIR2); source: E. coli Rosetta (pGEX-4T1), purified (GST beads, SEC); not shown: GFP, N-terminal, kept
B3: in test [3], the binding result is reported as “binds”.

The values are drawn from article doi:10.1101/2024.05.17.594671, “Mechanism of TAX1BP1 recruitment in aggrephagy to switch from cargo collection to sequestration” (bioRxiv, 2024).
